Assay results taken from patent EP4717714A1.

Molecular target: PD-1 antigen with murine Fc tags (human) (UniProt Q15116)
Experiment: SPR (Biacore T200), PD-1-mFc captured by anti-mouse Fc antibody, 100 nM antibody injected

PD-1 antigen with murine Fc tags (human), sequence (Q15116 25-167 limits assumed): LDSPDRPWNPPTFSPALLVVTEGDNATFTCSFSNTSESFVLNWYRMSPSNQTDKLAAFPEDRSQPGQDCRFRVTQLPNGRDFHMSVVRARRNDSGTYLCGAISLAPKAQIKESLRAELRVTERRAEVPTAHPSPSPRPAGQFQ

Bound antibody signal (RU): 128 RU
B1: JS001 (recombinant humanized anti-PD-1 monoclonal antibody reference article, Toripalimab) (antibody, human IgG4 S228P, kappa, V domains shown)
VH: QGQLVQSGAEVKKPGASVKVSCKASGYTFTDYEMHWVRQAPIHGLEWIGVIESETGGTAYNQKFKGRVTITADKSTSTAYMELSSLRSEDTAVYYCAREGITTVATTYYWYFDVWGQGTTVTVSS
VL: DVVMTQSPLSLPVTLGQPASISCRSSQSIVHSNGNTYLEWYLQKPGQSPQLLIYKVSNRFSGVPDRFSGSGSGTDFTLKISRVEAEDVGVYYCFQGSHVPLTFGQGTKLEIKR
